The values below are quoted from earlier work in article PMC5493979.

The series has as its target LRAT (UniProt O95237).
UniProt O95237, sequence (O95237 whole entry): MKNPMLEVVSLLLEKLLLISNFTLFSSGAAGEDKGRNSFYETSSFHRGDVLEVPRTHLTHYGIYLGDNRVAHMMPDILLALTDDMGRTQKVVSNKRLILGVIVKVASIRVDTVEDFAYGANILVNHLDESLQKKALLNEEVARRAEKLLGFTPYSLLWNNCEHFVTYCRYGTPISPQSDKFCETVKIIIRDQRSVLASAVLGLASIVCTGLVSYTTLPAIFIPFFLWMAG

In the case of apo-CRBP1 (from UniProt P09455), the Ki (commonly a measure of affinity in units of concentration, obtained from inhibition or displacement) is 200 nM.
